Test results taken from article PMC2864739, “Crystal Structure of the Neutralizing Llama VHH D7 and Its Mode of HIV-1 gp120 Interaction” (PLoS ONE, 2010).
Substitutions are numbered along the chain they refer to.

B1: llama heavy chain antibody fragment VHH D7, wild type (VHH)
VHH: AVQLVESGGGLAQAGGSLRLSCTVSGRTSSSHDMGWFRQAPGKEREFVAAISWSGGTTNYADSVKGRFAISKDNAKNAVSLQMNSLKPEDTAVYYCAAKWRPLRYSDNPSNSDYNYWGQGTQVTVSS
notes: PDB 2xa3 holds D7 with the framework changes Val5Gln, Ala11Val, Ala61Val, Ala68Asp and Ser79Tyr against wild type D7
B2: VHH D7 Asp100C→Ala (VHH)
VHH: B1 VHH with D107A
notes: PDB 2xa3 holds D7 with five framework changes) with the stated CDR3 mutation; Chothia numbering (100C is an insertion position)
B3: VHH D7 Tyr100A→Ala (VHH)
VHH: B1 VHH with Y105A
notes: PDB 2xa3 holds D7 with five framework changes) with the stated CDR3 mutation; Chothia numbering (100A is an insertion position)
B4: VHH D7 double mutant Asn101→Tyr/Tyr102→Asp (VHH)
VHH: B1 VHH with N115Y, Y116D
notes: PDB 2xa3 holds D7 with five framework changes) with the stated CDR3 mutations; Chothia numbering; also called double mutant Asn^101Tyr^102
B5: VHH D7 Lys95→Ser (VHH)
VHH: B1 VHH with K99S
notes: PDB 2xa3 holds D7 with five framework changes) with the stated CDR3 mutation; Chothia numbering
B6: VHH D7 Leu99→Ala (VHH)
VHH: B1 VHH with L103A
notes: as for B5
B7: VHH D7 Trp96→Ala (VHH)
VHH: B1 VHH with W100A
notes: as for B5
B8: VHH D7 Asn100D→Ala (VHH)
VHH: B1 VHH with N108A
notes: PDB 2xa3 holds D7 with five framework changes) with the stated CDR3 mutation; Chothia numbering (100D is an insertion position)

target: T1, HIV-1 envelope glycoprotein gp120 (IIIB) (HIV-1 IIIB (HXB2 clone entry), UniProt P04578); test: cell-based or functional assay; details: not given

Binder	IC50 of neutralisation of HIV-1 IIIB in TZM-bl cells, Average	IC50 of neutralisation of HIV-1 IIIB in TZM-bl cells, Exp1	IC50 of neutralisation of HIV-1 IIIB in TZM-bl cells, Exp2
B1	0.054 µg/mL	0.066 µg/mL	0.041 µg/mL
B2	0.027 µg/mL	0.4 µg/mL	0.014 µg/mL
B3	0.023 µg/mL	0.028 µg/mL	0.018 µg/mL
B4	0.011 µg/mL	0.017 µg/mL	0.005 µg/mL
B5	3 µg/mL	3.43 µg/mL	2.64 µg/mL
B6	0.69 µg/mL	0.817 µg/mL	0.56 µg/mL
B7	2.6 µg/mL	2.72 µg/mL	2.43 µg/mL

target: T1, HIV-1 envelope glycoprotein gp120 (IIIB); test: SPR; gp120 (IIIB) coupled covalently to a CM5 chip; D7 or D7 mutants at 25 and 100 nM flowed over; Biacore X; 10 mM HEPES pH 7.5, 100 mM NaCl, 0.05% P20; 30 µl/min; association 3 min, dissociation 15 min; simultaneous fit of association and dissociation; details: both partners purified

Binder	Kd	koff	kon
B1	2.91 ± 0.87 nM	0.000551 s⁻¹	155000 M⁻¹ s⁻¹
B2	0.84 ± 0.12 nM	0.000199 s⁻¹	236000 M⁻¹ s⁻¹
B8	0.51 ± 0.02 nM	0.000128 s⁻¹	252000 M⁻¹ s⁻¹
B3	1.55 ± 0.07 nM	0.000359 s⁻¹	233000 M⁻¹ s⁻¹
B4	0.18 ± 0.15 nM	3.3e-05 s⁻¹	187000 M⁻¹ s⁻¹
B5	377 ± 276 nM	0.00236 s⁻¹	13000 M⁻¹ s⁻¹
B6	69.9 ± 14.2 nM	0.005 s⁻¹	14000 M⁻¹ s⁻¹
B7	27.9 ± 20.5 nM	0.00313 s⁻¹	146000 M⁻¹ s⁻¹
